According to patent publication US20210024646A1 (published 2021):
Values joined by “and” are separate entries in the source; they are usually repeats but may differ in a detail not shown here. Identical values can stand only once. Like-named read-outs stand apart in the source and are kept apart here.

T1: CD73 on the surface of human tumor cells (human, UniProt P21589 27-549)
T1 chain: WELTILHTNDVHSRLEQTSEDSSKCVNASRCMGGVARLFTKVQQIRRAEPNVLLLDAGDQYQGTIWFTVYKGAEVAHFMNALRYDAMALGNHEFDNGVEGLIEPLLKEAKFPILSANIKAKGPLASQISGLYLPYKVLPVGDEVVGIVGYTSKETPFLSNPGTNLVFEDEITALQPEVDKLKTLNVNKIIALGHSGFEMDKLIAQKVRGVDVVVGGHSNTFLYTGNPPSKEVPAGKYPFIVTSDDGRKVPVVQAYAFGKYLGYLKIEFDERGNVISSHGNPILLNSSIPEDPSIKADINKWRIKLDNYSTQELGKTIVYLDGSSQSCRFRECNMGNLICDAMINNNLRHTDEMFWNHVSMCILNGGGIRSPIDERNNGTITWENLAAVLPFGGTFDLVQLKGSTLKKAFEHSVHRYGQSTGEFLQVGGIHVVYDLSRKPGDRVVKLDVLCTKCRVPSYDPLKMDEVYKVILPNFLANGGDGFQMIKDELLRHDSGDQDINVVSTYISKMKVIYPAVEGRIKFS

T2: extracellular domain of human CD73 protein (CD73-ECD), C-terminus polyhistidine-tagged (UniProt P21589 27-547)
T2 chain: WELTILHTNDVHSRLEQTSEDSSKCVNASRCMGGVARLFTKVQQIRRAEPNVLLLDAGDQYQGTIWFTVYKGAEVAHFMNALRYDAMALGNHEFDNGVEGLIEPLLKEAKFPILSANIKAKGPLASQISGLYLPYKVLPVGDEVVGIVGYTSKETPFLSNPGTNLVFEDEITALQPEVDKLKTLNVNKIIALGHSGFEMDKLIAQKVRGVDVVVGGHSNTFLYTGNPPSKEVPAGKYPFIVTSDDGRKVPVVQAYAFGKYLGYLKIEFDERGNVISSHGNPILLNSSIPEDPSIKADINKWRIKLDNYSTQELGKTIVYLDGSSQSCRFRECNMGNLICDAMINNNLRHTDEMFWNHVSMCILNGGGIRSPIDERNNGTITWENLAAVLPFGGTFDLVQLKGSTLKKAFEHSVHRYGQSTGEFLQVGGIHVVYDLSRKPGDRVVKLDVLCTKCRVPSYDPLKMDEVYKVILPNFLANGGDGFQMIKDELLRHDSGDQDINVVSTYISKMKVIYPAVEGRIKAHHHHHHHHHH

T3: Carbon-terminal polyhistidine-labeled recombinant cynomolgus monkey CD73 enzyme (cynomolgus monkey, UniProt A0A2K5V5U7 1-547)
T3 chain: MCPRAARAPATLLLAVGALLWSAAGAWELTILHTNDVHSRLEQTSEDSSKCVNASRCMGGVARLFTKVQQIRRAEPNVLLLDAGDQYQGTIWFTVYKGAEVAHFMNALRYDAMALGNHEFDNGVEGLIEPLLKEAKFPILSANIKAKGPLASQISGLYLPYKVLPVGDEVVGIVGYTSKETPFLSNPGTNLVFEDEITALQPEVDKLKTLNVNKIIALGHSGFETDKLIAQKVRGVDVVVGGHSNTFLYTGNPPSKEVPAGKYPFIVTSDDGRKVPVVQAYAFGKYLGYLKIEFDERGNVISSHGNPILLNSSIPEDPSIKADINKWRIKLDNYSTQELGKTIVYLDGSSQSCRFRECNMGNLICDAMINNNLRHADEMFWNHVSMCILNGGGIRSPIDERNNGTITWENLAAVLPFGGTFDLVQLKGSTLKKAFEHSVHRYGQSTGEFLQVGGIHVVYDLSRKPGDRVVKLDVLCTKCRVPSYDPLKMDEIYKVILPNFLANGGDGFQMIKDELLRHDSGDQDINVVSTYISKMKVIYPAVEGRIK

B1: mAb002c (antibody, V domains shown)
VH: QVQLQQPGAELVKPGASVRLSCKASGYTLTSYWMHWVKKRPGQGLEWIGEINPSNGRSNYNEKFKSKATLTVDRSSSTVYMQLGSLTSEDSAVYYCARRGVSGNYFDYWGQGTTLTVSS
VL: DIKMTQSPSSMYASLGERVTMTCKASQDINTYLSWFQQKPGKSPKTLIYRSNILVDGVPSRFSGSRSGQDYYLTITSLEYEDMGIYYCLQYDEFPYTFGGGTKLELK
B2: mAb001c (antibody, V domains shown)
VH: QVQLQQSGPELVKPGASVRISCKTSGYTFTNYYIYWVKQRPGQGLEWIGWIYPGNLNIKYNEKFKGKSTLTADKSSSTAFMQLSSLTSEDSAVYFCARDDNYAWFAYWGQGTLVTVSS
VL: DIVMTQSHKFMSTSIGDRVSITCKASQDVSTAVAWYQQKPGQSPKLLIYWTNTRHTGVPDRFTGNTSGTEHTLTISSVQAEDLALYYCQQHYSTPFTFGSGTTLEIK
B3: mAb001c-VK-SGS (antibody, V domains shown)
VH: QVQLQQSGPELVKPGASVRISCKTSGYTFTNYYIYWVKQRPGQGLEWIGWIYPGNLNIKYNEKFKGKSTLTADKSSSTAFMQLSSLTSEDSAVYFCARDDNYAWFAYWGQGTLVTVSS
VL: DIVMTQSHKFMSTSIGDRVSITCKASQDVSTAVAWYQQKPGQSPKLLIYWTNTRHTGVPDRFTGSGSGTEHTLTISSVQAEDLALYYCQQHYSTPFTFGSGTTLEIK

Columns and labels:
[1] = target: T1, CD73 on the surface of human tumor cells; test: FACS; MDA-MB-231 cells
[2] = target: T2, extracellular domain of human CD73 …; test: enzyme inhibition; right table
[3] = target: T1, CD73 on the surface of human tumor cells; test: FACS; NCI-H1299 cells, right table
[4] = target: T3, Carbon-terminal polyhistidine-labeled …; test: enzyme inhibition; right table
[5] = target: T1, CD73 on the surface of human tumor cells; test: inhibition of cell-surface CD73 enzyme activity; left panel
[6] = target: T2, extracellular domain of human CD73 …; test: enzyme inhibition; left table
[7] = target: T1, CD73 on the surface of human tumor cells; test: FACS; NCI-H1299 cells, left table
[8] = target: T1, CD73 on the surface of human tumor cells; test: FACS; MDA-MB-231 cells, left table
[9] = target: T1, CD73 on the surface of human tumor cells; test: FACS; MDA-MB-231 cells, right table
[10] = target: T3, Carbon-terminal polyhistidine-labeled …; test: enzyme inhibition; left table
[11] = target: T1, CD73 on the surface of human tumor cells; test: inhibition of cell-surface CD73 enzyme activity; right panel
[12] = target: T1, CD73 on the surface of human tumor cells; test: FACS; MDA-MB-231 cells, right table
[13] = target: T1, CD73 on the surface of human tumor cells; test: FACS; NCI-H1299 cells, left table
[14] = target: T1, CD73 on the surface of human tumor cells; test: FACS; MDA-MB-231 cells, left table
[15] = target: T1, CD73 on the surface of human tumor cells; test: FACS; NCI-H1299 cells, right table
[16] = target: T2, extracellular domain of human CD73 …; test: ELISA
[17] = target: T2, extracellular domain of human CD73 …; test: ELISA

| Binder | EC50 [1] [nM] | IC50 [2] [nM] | EC50 [3] [nM] | IC50 [4] [nM] | IC50 [5] [nM] | IC50 [6] [nM] | EC50 [7] [nM] | EC50 [8] [nM] | EC50 [9] [nM] | IC50 [10] [nM] | IC50 [11] [nM] | EC50 [12] [nM] | EC50 [13] [nM] | EC50 [14] [nM] | EC50 [15] [nM] | EC50 [16] | EC50 [17] [nM] |
| --- | --- | --- | --- | --- | --- | --- | --- | --- | --- | --- | --- | --- | --- | --- | --- | --- | --- |
| B1 | 0.544 | 0.038 | 0.53 | 0.039 | 0.317 | 0.037 | 0.658 | 0.466 | 0.466 | 0.039 | 0.363 |  |  |  |  |  |  |
| B2 | 1.19 | 0.02 |  | 0.04 |  | 0.03 |  |  |  | 0.04 |  | 0.618 | 1.48 | 0.45 |  |  |  |
| B3 |  |  |  |  |  |  |  |  |  |  |  |  | 1.62 |  | 1.65 | 0.099 nM and 0.054 nM | 0.073 |
